Assay results as given in patent US20020146846A1 (published 2002).

How the values were obtained:
[1] = target: T1, human epithelial glycoprotein-2, recombinant soluble protein (M1-F259) with a six-histidine C-terminal tag (human, UniProt P16422 24-259); experiment: SPR (BIAcore), EGP-2 amine-coupled to CM-5 chip, scFv injected, 20 C
T1 construct: range 1-259; The stated range M1-F259 starts at the initiator methionine; also called recombinant soluble EGP-2-antigen; immobilized EGP-2
T1 sequence: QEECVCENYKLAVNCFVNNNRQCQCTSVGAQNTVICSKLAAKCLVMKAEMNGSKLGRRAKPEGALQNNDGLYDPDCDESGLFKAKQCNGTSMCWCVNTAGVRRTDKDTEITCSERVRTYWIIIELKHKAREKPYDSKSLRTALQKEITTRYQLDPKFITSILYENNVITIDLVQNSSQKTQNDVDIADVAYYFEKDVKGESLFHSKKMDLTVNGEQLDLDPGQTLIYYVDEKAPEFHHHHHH

[2] = target: T2, epithelial glycoprotein-2 (EGP-2) on EGP-2 overexpressing SW2 cells (human, UniProt P16422 24-314); experiment: RIA of 99mTc-labelled scFv on SW2 cells, 4 C
T2 construct: whole, on cells; Endogenous antigen of the human SW2 cell line; also called GA733-2; Ep-CAM
T2 sequence (looked up): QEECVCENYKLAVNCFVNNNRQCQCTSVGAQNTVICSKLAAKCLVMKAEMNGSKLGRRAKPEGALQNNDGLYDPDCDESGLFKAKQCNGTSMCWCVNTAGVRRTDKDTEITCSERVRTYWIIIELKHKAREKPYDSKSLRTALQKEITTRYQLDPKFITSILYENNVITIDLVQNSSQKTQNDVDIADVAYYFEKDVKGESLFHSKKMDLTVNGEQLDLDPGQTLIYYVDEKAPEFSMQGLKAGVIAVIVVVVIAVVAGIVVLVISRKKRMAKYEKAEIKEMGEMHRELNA

[3] = target: T1, human epithelial glycoprotein-2, …; experiment: SPR (BIAcore), immobilized EGP-2, low density coating and high flow rate

B1: anti-EGP-2 scFv fragment 4D5MOC-B (scFv)
chain: DIQMTQSPSSLSASVGDRVTITCRSTKSLLHSNGITYLYWYQQKPGKAPKLLIYQMSNLASGVPSRFSSSGSGTDFTLTISSLQPEDFATYYCAQNLEIPRTFGQGTKVELKRTPSHNSHQVPSAGGPTANSGTSGSEVQLVQSGPGLVQPGGSVRISCAASGYTFTNYGMNWVKQAPGKGLEWMGWINTYTGESTYADSFKGRFTFSLDTSASAAYLQINSLRAEDTAVYYCARFAIKGDYWGQGTLLTVSS
- Kd [1]: 3.9 nM
- koff [1]: 0.000717 s⁻¹
- kon [1]: 184000 M⁻¹ s⁻¹
- Kd [2]: 3.7 nM

B2: anti-EGP-2 scFv fragment obtained from the murine hybridoma MOC31 (scFv)
chain: DIVMTQSAFSNPVTLGTSASISCRSTKSLLHSNGITYLYWYLQKPGQSPQLLIYQMSNLASGVPDRFSSSGSGTDFTLRISRVEAEDVGVYYCAQNLEIPRTFGGGTKLEIKRTPSHNSHQVPSAGGPTANSGTSGSQVQLQQSGPELKKPGETVKISCKASGYTFTNYGMNWVKQAPGRGLKWMGWINTYTGESTYADDFKGRFAFSLETSASAAYLQINNLKNEDTATYFCARFAIKGDYWGQGTTLTVSS
- half-life of binding on its target [3]: ~38 min
- Kd [1]: 3 nM
- koff [1]: 0.0003 s⁻¹
- kon [1]: 99000 M⁻¹ s⁻¹
- Kd [2]: 10.8 nM
